Results published in article doi:10.1101/2023.01.10.523476 (bioRxiv, 2023).
Where two headings read alike, the source gives them in different places.

Key:
cryo-EM structure [1] = biological target: the molecule itself; assay: cryo-EM structure
cryo-EM structure [2] = biological target: the molecule itself; assay: cryo-EM structure; remark: listed apart in the source

Protein | stoichiometry N (cryo-EM structure [1]) | stoichiometry N (cryo-EM structure [2])
GspDβ secretin (ETEC H10407 strain) with hexahistidine tag (natural protein) EEATFTANFKDTDLKSFIETVGANLNKTIIMGPGVQGKVSIRTMTPLNERQYYQLFLNLLEAQGYAVVPMENDVLKVVKSSAAKVEPLPLVGEGSDNYAGDEMVTKVVPVRNVSVRELAPILRQMIDSAGSGNVVNYDPSNVIMLTGRASVVERLTEVIQRVDHAGNRTEEVIPLDNASASEIARVLESLTKNSGENQPATLKSQIVADERTNSVIVSGDPATRDKMRRLIRRLDSEMERSGNSQVFYLKYSKAEDLVDVLKQVSGTLTAAKEEAEGTVGSGREIVSIAASKHSNALIVTAPQDIMQSLQSVIEQLDIRRAQVHVEALIVEVAEGSNINFGVQWASKDAGLMQFANGTQIPIGTLGAAISQAKPQKGSTVISENGATTINPDTNGDLSTLAQLLSGFSGTAVGVVKGDWMALVQAVKNDSSSNVLSTPSITTLDNQEAFFMVGQDVPVLTGSTVGSNNSNPFNTVERKKVGIMLKVTPQINEGNAVQMVIEQEVSKVEGQTSLDVVFGERKLKTTVLANDGELIVLGGLMDDQAGESVAKVPLLGDIPLIGNLFKSTADKKEKRNLMVFIRPTILRDGMAADGVSQRKYNYMRAEQIYRDEQGLSLMPHTAQPVLPAQNQALPPEVRAFLNAGRTR | 15 | –
GspDα secretin (E. coli K12 strain) (natural protein) ENEQYGANFNNADIRQFVEIVGQHLGKTILIDPSVQGTISVRSNDTFSQQEYYQFFLSILDLYGYSVITLDNGFLKVVRSANVKTSPGMIADSSRPGVGDELVTRIVPLENVPARDLAPLLRQMMDAGSVGNVVHYEPSNVLILTGRASTINKLIEVIKRVDVIGTEKQQIIHLEYASAEDLAEILNQLISESHGKSQMPALLSAKIVADKRTNSLIISGPEKARQRITSLLKSLDVEESEEGNTRVYYLKYAKATNLVEVLTGVSEKLKDEKGNARKPSSSGAMDNVAITADEQTNSLVITADQSVQEKLATVIARLDIRRAQVLVEAIIVEVQDGNGLNLGVQWANKNVGAQQFTNTGLPIFNAAQGVADYKKNGGITSANPAWDMFSAYNGMAAGFFNGDWGVLLTALASNNKNDILATPSIVTLDNKLASFNVGQDVPVLSGSQTTSGDNVFNTVERKTVGTKLKVTPQVNEGDAVLLEIEQEVSSVDSSSNSTLGPTFNTRTIQNAVLVKTGETVVLGGLLDDFSKEQVSKVPLLGDIPLVGQLFRYTSTERAKRNLMVFIRPTIIRDDDVYRSLSKEKYTRYRQEQQQRIDGKSKALVGSEDLPVLDENTFNSHAPAPSSR | – | 15
